Measurements: US20240209334A1, “SMALL-MOLECULE-ACTIVATED GLYCAN MODIFYING ENZYMES AND USES THEREOF” (President and Fellows of Harvard College, priority 2022, published 2024)

Key:
[1] = tested on: O-GlcNAcylated proteins in HEK293T cells; test: Quantitative proteomics after enrichment for O-GlcNAc; type: cell-based, Homo sapiens; settings: 25 μM OSMI-4b for 10 hours
Procedure: To further assess the spatial deglycosylation mediated by these subcellularly localized OGA-intein variants, quantitative proteomics was performed following enrichment for O-GlcNAc (38) on cell lysates after expression of C181-NLS with 4-HT treatment for 2 hours and 24 hours, respectively, or the OGT inhibitor OSMI-4b (3) for comparison (FIG. 4E and FIGS. 12A, 12B, 12C).
Chemoenzymatic labeling of O-GlcNAcylated proteins. Purification of GalT1 (Y289L) enzyme and labeling of O-GlcNAcylated proteins with GalNAz were performed according to the procedure of Hsich-Wilson and co-workers (51). Briefly, cell samples in 15-cm dishes were harvested and washed by PBS once. Cells were lysed in 2% SDS/PBS by heating at 95° C. for 5 minutes, followed by sonication. Protein concentrations were determined and then subjected to reduction and alkylation using 25 mM DTT at 95° C. for 5 minutes and 50 mM iodoacetamide at room temperature for 1 hour, respectively. Proteins were precipitated using the methanol/chloroform mix (aqueous phase: CH3OH:CHCl3=4:4:1) and resuspended in 1% SDS, 20 mM HEPES (pH 7.9) buffer with a concentration of 3.75 mg/mL. […]
Quantitative chemical proteomics. […]

[2] = tested on: global O-GlcNAc level in MCF-7 cells; test: Immunoblot of global O-GlcNAc level and splicing in MCF-7 stable cell lines; type: cell-based, human; settings: MCF-7 cells stably expressing the variant
Excerpt: In addition to serving as an activator for intein splicing, 4-HT is also known as the active metabolite of tamoxifen, an FDA-approved drug for treating breast cancer patients. Breast cancer cells also have elevated OGT expression (39) and decreased levels of OGA (40, 41), resulting in elevated O-GlcNAcylation in the proteome. OGT is usually required for tumor growth and metastasis (39), and low OGA expression is correlated with poor survival in breast cancer patients (FIG. 13). The ER positive breast cancer-derived MCF-7 cell line is sensitive to tamoxifen and 4-HT, resulting in suppression of cell proliferation, yet drug resistance occurs after long-term treatment (42). Previous studies also show evidence that upregulation of O-GlcNAcylation protects MCF-7 cells from tamoxifen-induced cell death (43). To determine if reduction of O-GlcNAc sensitized MCF-7 cells to 4-HT treatment, it was assessed whether 4-HT induced inhibition of breast cancer cell proliferation and OGA-intein activation worked synergistically to accelerate cell death (FIG. 5A). […] Next, these two cell lines were treated with 4-HT at increasing concentrations, and cell viability was measured after 48 hours. […] Given that 4-HT promoted MCF-7 cell death through apoptosis (43), the apoptosis of these cells under 4-HT treatment was further analyzed through flow cytometry analyses following Annexin V and DAPI staining. […]

Nup62-NLS = test: Spatial deglycosylation of nuclear Nup62-NLS by OGA-intein(C181) variants in HEK293T cells; type: cell-based; settings: nuclear Nup62-NLS co-expressed
Procedure: (§1) Next, it was assessed whether these OGA-intein(C181) variants enable selective spatial deglycosylation in live cells. As O-GlcNAc affects the subcellular localization of many proteins (37), Nup62 was used as a model cytoplasmic substrate, which was previously primarily localized in the cytoplasm when transiently overexpressed in HEK293T cells independent of the O-GlcNAcylation state (13) (FIGS. 11A, 11B). Nup62 was co-expressed with three OGA-intein(C181) variants (C181-WT, C181-NLS, and C181-NES) in HEK293T cells, and Nup62 was enriched for O-GlcNAc measurement. […] Next, Nup62 was localized to the nucleus by attachment to an NLS tag (Nup62-NLS), and a similar coexpression and 4-HT-triggered activation was performed with OGA-intein(C181) variants. […] The fluorescent intensity of OGA-intein variants also show a strong correlation to the localization of Nup62, indicating the desired subcellular distribution (FIGS. 11A-C).
(§2) Immunoprecipitation and Immunoblot assays. […]
(§3) For immunoblotting analysis, proteins were transferred to a nitrocellulose membrane using an iBlot system (Invitrogen). […] Immunoblot images were captured using Azure Imager C600 and analyzed with Fiji ImageJ for converting all IR fluorescence western blot images to grayscale images.

Nup62 [3] = test: Screen of intein insertion sites: OGA-intein variants co-expressed with Nup62 in HEK293T cells, immunoblot; type: cell-based
Excerpt: OGA is a multi-domain hydrolase responsible for O-GlcNAc removal in mammalian cells. Based on the reported crystal structures of OGA (27-29), the essential domains of the long splice variant of OGA were identified, and it was confirmed that the HAT domain is not required for its deglycosidase activity in cells (13). In addition, replacement of the disordered region between the catalytic domain and the stalk domain with a glycine-serine flexible linker (GS-linker) maintained its activity in live cells in the absence of the C-terminal HAT domain (13, 28). This variant, termed miniOGA, was selected as the initial template for engineering with an intein due to its smaller size and simpler structure (FIG. 2A). […] Inserting this evolved 4-HT-responsive intein into a site that abolishes miniOGA activity until protein splicing has taken place could result in a conditionally active OGA for O-GlcNAc removal under the control of 4-HT. As intein splicing would leave behind a single cysteine residue (22), and to minimize alterations on OGA protein sequence, cysteine residues across different structural domains and the GS-linker at miniOGA were selected as the candidate insertion sites, thus generating OGA-intein fusion constructs for nine positions in total (C62, C166, C181, C220, C316, C596, C631, C663, and the GS-linker) (FIG. 2A). The nine OGA-intein variants were transiently expressed in HEK293T cells together with a model glycoprotein Nup62. Cells were treated with or without 1 μM 4-HT for 24 hours after transfection. OGA-intein variants were then detected by the Myc tag to verify the expected splicing, and their enzymatic activities were evaluated by detection of O-GlcNAc on the substrate Nup62 following immunoprecipitation.
as §2, §3

Nup62 [4] = test: Spatial deglycosylation of cytoplasmic Nup62 by OGA-intein(C181) variants in HEK293T cells; type: cell-based; settings: cytoplasmic Nup62 co-expressed
Procedure: as §1, §2, §3

## CCOC(=O)CN(Cc1cccs1)C(=O)[C@H](NS(=O)(=O)c1cc2ccc(=O)[nH]c2cc1Cl)c1ccccc1OC [OSMI-4b]
[1]
  change of O-GlcNAc on nuclear and cytoplasmic proteins: mild reduction of O-GlcNAc on both nuclear and cytoplasmic proteins

B1: OGA-intein(C181): miniOGA with the 4-HT-responsive evolved intein inserted at C181 (protein)
chain: MEQKLISEEDLAIAMVQKESQATLEERESELSSNPAASAGASLEPPAAPAPGEDNPAGAGGAAVAGAAGGARRFLCGVVEGFYGRPWVMEQRKELFRRLQKWELNTYLYAPKDDYKHRMFWREMYSVEEAEQLMTLISAAREYEIEFIYAISPGLDITFSNPKEVSTLKRKLDQVSQFGCRSFALLFDDIDHNMCLAEGTRIFDPVTGTTHRIEDVVDGRKPIHVVAAAKDGTLLARPVVSWFDQGTRDVIGLRIAGGAIVWATPDHKVLTEYGWRAAGELRKGDRVAGPGGSGNSLALSLTADQMVSALLDAEPPILYSEYDPTSPFSEASMMGLLTNLADRELVHMINWAKRVPGFVDLTLHDQAHLLERAWLEILMIGLVWRSMEHPGKLLFAPNLLLDRNQGKCVEGMVEIFDMLLATSSRFRMMNLQGEEFVCLKSIILLNSGVYTFLSSTLKSLEEKDHIHRALDKITDTLIHLMAKAGLTLQQQHQRLAQLLLILSHIRHMSNKGMEHLYSMKYKNVVPLYDLLLEMLDAHRLHAGGSGASRVQAFADALDDKFLHDMLAEGLRYSVIREVLPTRRARTFDLEVEELHTLVAEGVVVHNCAADKEVFSSFAHAQVSITNEIYQYLGEPETFLFCPTEYCGTFCYPNVSQSPYLRTVGEKLLPGIEVLWTGPKVVSKEIPVESIEEVSKIIKRAPVIWDNIHANDYDQKRLFLGPYKGRSTELIPRLKGVLTNPNCEFEANYVAIHTLATWYKSNMNGVRKDVVMTDSEDSTVSIQIKLENEGSDEDIETDVLYSPQMALKLALTEWLQEFGVPHQYSSRGSGSGSGSGSGSGSGEKPLYTAEPVTLEDLQLLADLFYLPYEHGPKGAQMLREFQWLRANSSVVSVNCKGKDSEKIEEWRSRAAKFEEMCGLVMGMFTRLSNCANRTILYDMYSYVWDIKSIMSMVKSFVQWLGCRSHSSAQFLIGDQEPWAFRGGLAGEFQRLLPIDGANDLFFQPP
[2]
  global O-GlcNAc level after adding 4-HT: decreased global O-GlcNAc level
Nup62-NLS
  4-HT-induced deglycosylation of Nup62-NLS: 4-HT-induced deglycosylation
Nup62 [3]; 1 μM 4-HT for 24 hours, Myc tag detection
  intein splicing / spliced product on 4-HT treatment: yielding the active spliced product
Nup62 [3]; co-expressed Nup62, 1 μM 4-HT for 24 hours
  deglycosylation activity in the presence of 4-HT: high deglycosylation activity
Nup62 [3]; co-expressed Nup62, without 4-HT
  OGA activity (deglycosylation of Nup62) in the absence of 4-HT: little activity
Nup62 [4]
  removal of O-GlcNAc from Nup62 after 4-HT-triggered activation: removed O-GlcNAc from Nup62
